Source: PMC4735607, “Reversal of axonal growth defects in an extraocular fibrosis model by engineering the kinesin–microtubule interface” (Nature Communications, 2016)

Columns and labels:
[1] = target: T1, microtubules of recombinant human TUBA1B/TUBB3 tubulin, wild type (human, UniProt P68363-1 1-451; Q13509-1 1-450, K40R); test: single-molecule motility assay (total internal reflection fluorescence microscopy); MTs immobilised on PEG-coated glass via streptavidin and biotinylated nonmotile kinesin HK340-E236A; BG-549-labelled HK432 at 0.4 nM; x2 MA buffer pH 6.8, 1 mM ATP, 1 mg/ml casein, 10 uM taxol, 25 °C; details: both partners purified
T1 construct: Polymer of alpha/beta heterodimers stabilised with taxol; also called WT MTs; WT MT; source: HighFive insect cells (baculovirus), purified (DEAE Sepharose, TALON, anti-FLAG resin), polymerized with taxol; not shown: FLAG (DYKDDDDK)
T1 sequence (P68363 whole entry K40R, chain 1 of 2): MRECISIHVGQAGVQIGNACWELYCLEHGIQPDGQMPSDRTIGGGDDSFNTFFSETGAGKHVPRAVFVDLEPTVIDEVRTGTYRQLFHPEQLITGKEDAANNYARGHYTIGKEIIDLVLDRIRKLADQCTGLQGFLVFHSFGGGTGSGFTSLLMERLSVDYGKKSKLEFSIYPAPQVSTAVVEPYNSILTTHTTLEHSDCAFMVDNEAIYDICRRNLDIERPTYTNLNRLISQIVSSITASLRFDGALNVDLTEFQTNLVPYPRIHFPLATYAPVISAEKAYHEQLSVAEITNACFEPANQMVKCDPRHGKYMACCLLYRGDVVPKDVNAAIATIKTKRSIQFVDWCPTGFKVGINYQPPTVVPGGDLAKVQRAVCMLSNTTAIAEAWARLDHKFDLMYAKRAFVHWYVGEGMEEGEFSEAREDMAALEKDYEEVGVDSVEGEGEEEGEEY
T1 sequence (Q13509 whole entry, chain 2 of 2): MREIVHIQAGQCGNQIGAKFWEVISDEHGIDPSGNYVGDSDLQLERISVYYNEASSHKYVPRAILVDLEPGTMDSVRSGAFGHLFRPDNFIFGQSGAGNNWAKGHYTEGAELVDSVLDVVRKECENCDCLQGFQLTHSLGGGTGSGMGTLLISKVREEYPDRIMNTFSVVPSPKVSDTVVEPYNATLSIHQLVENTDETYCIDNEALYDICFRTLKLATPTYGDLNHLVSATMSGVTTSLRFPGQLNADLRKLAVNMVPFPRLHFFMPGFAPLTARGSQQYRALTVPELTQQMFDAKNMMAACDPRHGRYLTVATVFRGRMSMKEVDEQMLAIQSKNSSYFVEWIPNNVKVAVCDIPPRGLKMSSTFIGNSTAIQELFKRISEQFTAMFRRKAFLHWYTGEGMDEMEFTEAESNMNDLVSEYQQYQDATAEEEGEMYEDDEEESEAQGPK

[2] = target: microtubules of recombinant human TUBA1B/TUBB3 tubulin with TUBB3 R262A (human) (UniProt P68363)
Sequence of microtubules of recombinant human TUBA1B/TUBB3 tubulin with TUBB3 R262A (human) (P68363 whole entry K40R, chain 1 of 2): as the sequence (P68363 whole entry K40R, chain 1 of 2) above
Sequence of microtubules of recombinant human TUBA1B/TUBB3 tubulin with TUBB3 R262A (human) (Q13509 whole entry R262A, chain 2 of 2, further chain): as the sequence (Q13509 whole entry, chain 2 of 2) above, with R262A counted along it

[3] = target: microtubules of recombinant human TUBA1B/TUBB3 tubulin with TUBB3 R262H (human) (UniProt P68363)
Sequence of microtubules of recombinant human TUBA1B/TUBB3 tubulin with TUBB3 R262H (human) (P68363 whole entry K40R, chain 1 of 2): as the sequence (P68363 whole entry K40R, chain 1 of 2) above
Sequence of microtubules of recombinant human TUBA1B/TUBB3 tubulin with TUBB3 R262H (human) (Q13509 whole entry R262H, chain 2 of 2, further chain): as the sequence (Q13509 whole entry, chain 2 of 2) above, with R262H counted along it

[4] = target: T2, microtubules of recombinant human TUBA1B/TUBB3 tubulin with TUBB3 R262A (human, UniProt P68363-1 1-451; Q13509-1 1-450, K40R | R262A); test: single-molecule motility assay (total internal reflection fluorescence microscopy); MTs immobilised on PEG-coated glass via streptavidin and biotinylated nonmotile kinesin HK340-E236A; BG-549-labelled HK432 at 0.4 nM; x2 MA buffer pH 6.8, 1 mM ATP, 1 mg/ml casein, 10 uM taxol, 25 °C; details: both partners purified
T2 construct: human beta3-tubulin TUBB3 with the synthetic mutation R262A; also called R262A MTs; β-R262A MT; source: HighFive insect cells (baculovirus), purified (DEAE Sepharose, TALON, anti-FLAG resin), polymerized with taxol; not shown: FLAG (DYKDDDDK)
T2 sequence (P68363 whole entry K40R, chain 1 of 2): as the sequence (P68363 whole entry K40R, chain 1 of 2) above
T2 sequence (Q13509 whole entry R262A, chain 2 of 2): as the sequence (Q13509 whole entry, chain 2 of 2) above, with R262A counted along it

[5] = target: T2, microtubules of recombinant human …; test: co-sedimentation; BG-549-labelled HK349 with MTs; x2 MA buffer, 1 mg/ml casein, 40 uM taxol, 1 mM ADP and 1 U/ml hexokinase (ADP state); details: both partners purified
[6] = target: T2, microtubules of recombinant human …; test: co-sedimentation; BG-549-labelled HK349 with MTs; x2 MA buffer, 1 mg/ml casein, 40 uM taxol, 1 U/ml apyrase (nucleotide-free state); details: both partners purified
[7] = target: T2, microtubules of recombinant human …; test: co-sedimentation; BG-549-labelled HK349 with MTs; x2 MA buffer, 1 mg/ml casein, 40 uM taxol, 1 mM AMPPNP and 1 U/ml apyrase (AMPPNP state); details: both partners purified

Binder	binding result [1]	fold increase in Kd against the WT–WT pair [5] [fold]	fold increase in Kd against the WT–WT pair [6] [fold]	further results
two-headed KIF5B motor, human KIF5B construct HK432 (residues 1-432, SNAP tag, His6) (domain or fragment, UniProt P33176 1-432, looked up, fluorescent dye BG-549 (SNAP-surface 549) on the SNAP tag, human kinesin-1 heavy chain KIF5B, residues 1-432; also called WT KIF5B) MADLAECNIKVMCRFRPLNESEVNRGDKYIAKFQGEDTVVIASKPYAFDRVFQSSTSQEQVYNDCAKKIVKDVLEGYNGTIFAYGQTSSGKTHTMEGKLHDPEGMGIIPRIVQDIFNYIYSMDENLEFHIKVSYFEIYLDKIRDLLDVSKTNLSVHEDKNRVPYVKGCTERFVCSPDEVMDTIDEGKSNRHVAVTNMNEHSSRSHSIFLINVKQENTQTEQKLSGKLYLVDLAGSEKVSKTGAEGAVLDEAKNINKSLSALGNVISALAEGSTYVPYRDSKMTRILQDSLGGNCRTTIVICCSPSSYNESETKSTLLFGQRAKTIKNTVCVNVELTAEQWKKKYEKEKEKNKILRNTIQWLENELNRWRNGETVPIDEQFDKEKANLEAFTVDKDITLTNDKPATAIGVIGNFTDAERRKCEEEIAKLYKQL	binds	–	–	MT-activated kinesin ATPase, apparent Michaelis–Menten constant K0.5MT as multiple of that with WT MTs [2]: 10 times of WT; MT-activated kinesin ATPase, kcat as percent of that with WT MTs [2]: 23 % of WT; MT-activated kinesin ATPase, apparent Michaelis–Menten constant K0.5MT as multiple of that with WT MTs [3]: 9.7 times of WT; MT-activated kinesin ATPase, kcat as percent of that with WT MTs [3]: 17 % of WT
D279N KIF5B, construct HK432 (residues 1-432, SNAP tag, His6) (domain or fragment, human, UniProt P33176 1-432, looked up, fluorescent dye BG-549 (SNAP-surface 549) on the SNAP tag, human kinesin-1 heavy chain KIF5B, residues 1-432, D279N in the L12 loop; also called mutant HK432) MADLAECNIKVMCRFRPLNESEVNRGDKYIAKFQGEDTVVIASKPYAFDRVFQSSTSQEQVYNDCAKKIVKDVLEGYNGTIFAYGQTSSGKTHTMEGKLHDPEGMGIIPRIVQDIFNYIYSMDENLEFHIKVSYFEIYLDKIRDLLDVSKTNLSVHEDKNRVPYVKGCTERFVCSPDEVMDTIDEGKSNRHVAVTNMNEHSSRSHSIFLINVKQENTQTEQKLSGKLYLVDLAGSEKVSKTGAEGAVLDEAKNINKSLSALGNVISALAEGSTYVPYRNSKMTRILQDSLGGNCRTTIVICCSPSSYNESETKSTLLFGQRAKTIKNTVCVNVELTAEQWKKKYEKEKEKNKILRNTIQWLENELNRWRNGETVPIDEQFDKEKANLEAFTVDKDITLTNDKPATAIGVIGNFTDAERRKCEEEIAKLYKQL	binds	–	–	–
D279R KIF5B, single-headed construct HK349 (residues 1-349, SNAP tag, His6) (domain or fragment, human, UniProt P33176 1-349, looked up, fluorescent dye BG-549 (SNAP-surface 549) on the SNAP tag, kinesin-1 heavy chain KIF5B, residues 1-349, D279R in the L12 loop) MADLAECNIKVMCRFRPLNESEVNRGDKYIAKFQGEDTVVIASKPYAFDRVFQSSTSQEQVYNDCAKKIVKDVLEGYNGTIFAYGQTSSGKTHTMEGKLHDPEGMGIIPRIVQDIFNYIYSMDENLEFHIKVSYFEIYLDKIRDLLDVSKTNLSVHEDKNRVPYVKGCTERFVCSPDEVMDTIDEGKSNRHVAVTNMNEHSSRSHSIFLINVKQENTQTEQKLSGKLYLVDLAGSEKVSKTGAEGAVLDEAKNINKSLSALGNVISALAEGSTYVPYRRSKMTRILQDSLGGNCRTTIVICCSPSSYNESETKSTLLFGQRAKTIKNTVCVNVELTAEQWKKKYEKEKE	–	2	10	–

The next lines start with results.

binding result [1]	fold increase in Kd against the WT–WT pair [5] [fold]	fold increase in Kd against the WT–WT pair [6] [fold]	Binder	further results
binds	–	–	D279R KIF5B, construct HK432 (residues 1-432, SNAP tag, His6) (domain or fragment, human, UniProt P33176 1-432, looked up, fluorescent dye BG-549 (SNAP-surface 549) on the SNAP tag, human kinesin-1 heavy chain KIF5B, residues 1-432, D279R in the L12 loop; also called mutant HK432) MADLAECNIKVMCRFRPLNESEVNRGDKYIAKFQGEDTVVIASKPYAFDRVFQSSTSQEQVYNDCAKKIVKDVLEGYNGTIFAYGQTSSGKTHTMEGKLHDPEGMGIIPRIVQDIFNYIYSMDENLEFHIKVSYFEIYLDKIRDLLDVSKTNLSVHEDKNRVPYVKGCTERFVCSPDEVMDTIDEGKSNRHVAVTNMNEHSSRSHSIFLINVKQENTQTEQKLSGKLYLVDLAGSEKVSKTGAEGAVLDEAKNINKSLSALGNVISALAEGSTYVPYRRSKMTRILQDSLGGNCRTTIVICCSPSSYNESETKSTLLFGQRAKTIKNTVCVNVELTAEQWKKKYEKEKEKNKILRNTIQWLENELNRWRNGETVPIDEQFDKEKANLEAFTVDKDITLTNDKPATAIGVIGNFTDAERRKCEEEIAKLYKQL	binding frequency, fold of that of WT KIF5B to WT MT [4]: 2 fold
–	~6	~70	single-headed KIF5B construct HK349 (residues 1-349, SNAP tag, His6) (domain or fragment, human, UniProt P33176 1-349, looked up, fluorescent dye BG-549 (SNAP-surface 549) on the SNAP tag, kinesin-1 heavy chain KIF5B, residues 1-349; monomeric construct; also called K349-SNAP-His; minimal motor) MADLAECNIKVMCRFRPLNESEVNRGDKYIAKFQGEDTVVIASKPYAFDRVFQSSTSQEQVYNDCAKKIVKDVLEGYNGTIFAYGQTSSGKTHTMEGKLHDPEGMGIIPRIVQDIFNYIYSMDENLEFHIKVSYFEIYLDKIRDLLDVSKTNLSVHEDKNRVPYVKGCTERFVCSPDEVMDTIDEGKSNRHVAVTNMNEHSSRSHSIFLINVKQENTQTEQKLSGKLYLVDLAGSEKVSKTGAEGAVLDEAKNINKSLSALGNVISALAEGSTYVPYRDSKMTRILQDSLGGNCRTTIVICCSPSSYNESETKSTLLFGQRAKTIKNTVCVNVELTAEQWKKKYEKEKE	fold increase in Kd against the WT–WT pair [7]: ~90 fold
